Experiment [1] has as its target T1, human FcγRIIIa(F) (human, UniProt P08637 17-208, limits assumed).
T1 construct: also called FcgRIIIaF; FcγRIIIa allotype F158
The experiment in a line: SPR, captured antibody, FcγR analyte; bound amount per captured antibody. Background: Surface plasmon resonance follows binding to a sensor surface in real time, without labels.
T1 sequence (P08637 other isoform, or with tags, fused parts or gaps limits assumed): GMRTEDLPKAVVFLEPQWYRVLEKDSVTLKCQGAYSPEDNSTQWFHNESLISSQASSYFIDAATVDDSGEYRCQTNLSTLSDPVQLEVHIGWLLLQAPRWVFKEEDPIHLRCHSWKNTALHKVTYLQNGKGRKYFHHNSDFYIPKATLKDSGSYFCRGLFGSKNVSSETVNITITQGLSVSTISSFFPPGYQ
Protocol: (§1) Interaction between each modified antibody and Fcγ receptor prepared in the manner described above was analyzed using the BIACORE™ T100 surface plasmon resonance system (GE Healthcare), BIACORE™ T200 surface plasmon resonance system (GE Healthcare), BIACORE™ A100 surface plasmon resonance system or BIACORE™ 4000 surface plasmon resonance system. HBS-EP+(GE Healthcare) was used for the running buffer, and measurements were carried out at 25° C. The chips used were chips in which antigen peptides, Protein A (Thermo Scientific), Protein A/G (Thermo Scientific) or Protein L (ACTIGEN® protein (Alltech or BioVision) were immobilized on the Series S Sensor Chip CM5 (GE Healthcare) or Series S Sensor Chip CM4 (GE Healthcare) by amine coupling, or chips in which preliminarily biotinylated antigen peptides were allowed to interact and then immobilized on the Series S Sensor Chip SA (certified) (GE Healthcare). The target antibodies were captured on these sensor chips, Fcγ receptor diluted with the running buffer was allowed to interact, followed by measurement of the amount of bound antibody. The amounts bound were compared between antibodies. However, since the amount of Fcγ receptor bound depends on the amount of captured antibody, the values used for comparison were first corrected by dividing the amount of Fcγ receptor bound by the captured amount of each antibody. Through reaction with 10 mM glycine-HCl at pH 1.5, the sensor chips were regenerated by washing off antibody captured on the sensor chips and used repeatedly.
(§2) Binding strength was evaluated according to the following method based on the results of analyzing the interaction with each FcγR. […] That value was then further multiplied by 100, and the resulting value was used as an indicator of relative binding activity to each FcγR.

Experiment [2] concerns the target T2, human FcγRIIa(R) (human, UniProt P12318 36-217).
T2 construct: Soluble analyte in SPR; also called FcgRIIaR; FcγRIIa type R
T2 chain: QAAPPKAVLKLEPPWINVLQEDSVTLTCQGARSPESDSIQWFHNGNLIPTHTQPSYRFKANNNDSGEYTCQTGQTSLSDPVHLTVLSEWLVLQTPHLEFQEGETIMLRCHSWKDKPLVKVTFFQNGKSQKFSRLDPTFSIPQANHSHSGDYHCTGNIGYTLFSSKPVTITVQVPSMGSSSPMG
The experiment in a line: SPR, captured antibody, FcγR as analyte.
Protocol: as §1, §2

Experiment [3] concerns the target T3, human FcγRIIIa(F) (human, UniProt P08637 17-208, limits assumed).
T3 construct: Soluble analyte in SPR; allotype F158 stood in the assay; also called FcgRIIIaF; FcγRIIIa allotype F158
Nature of the experiment: SPR, captured antibody, FcγR as analyte.
T3 sequence (P08637 other isoform, or with tags, fused parts or gaps limits assumed): as the sequence (P08637 other isoform, or with tags, fused parts or gaps limits assumed) above
Protocol: as §1, §2

Experiment [4] deals with T4, human FcγRIIb (human, UniProt P31994 43-217, limits assumed).
T4 construct: also called FcgRIIb; FcγIIB
T4 sequence: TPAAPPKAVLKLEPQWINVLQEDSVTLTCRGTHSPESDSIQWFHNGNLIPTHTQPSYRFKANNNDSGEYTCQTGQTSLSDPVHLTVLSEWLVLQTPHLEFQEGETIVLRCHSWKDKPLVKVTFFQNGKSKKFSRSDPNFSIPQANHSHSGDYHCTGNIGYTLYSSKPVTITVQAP
The experiment in a line: SPR, captured antibody, FcγR analyte; bound amount per captured antibody.
Protocol: as §1, §2

In experiment [5] the target is T5, human FcγRIIa(H) (human, UniProt P12318 36-217).
T5 construct: Soluble analyte in SPR; also called FcgRIIaH; FcγRIIa type H
T5 sequence: T2 chain with R133H
The experiment in a line: SPR, captured antibody, FcγR as analyte.
Protocol: as §1, §2

Experiment [6] concerns the target T6, human FcγRIIb (human, UniProt P31994 43-217, limits assumed).
T6 construct: Soluble analyte in SPR; also called FcgRIIb; FcγIIB
T6 sequence: T4 sequence
The experiment in a line: SPR, captured antibody, FcγR as analyte.
Protocol: as §1, §2

The target in experiment [7] is T7, human FcγRIIa type R (human, UniProt P12318 36-217).
T7 construct: also called FcgRIIaR; FcγRIIa(R)
T7 chain: T2 chain
Nature of the experiment: SPR (Biacore), amount of FcγR bound to captured antibody relative to IL6R-BF648/IL6R-L x100.
Protocol: According to the following method, relative binding activities were calculated for the results of analyzing interactions with the respective FcγRs.

This note sets out measurements from patent US20230257470A1 (published 2023).

Positions count from the first letter of the chain named. Names and notes keep the numbering of the source.

B1: GpH7-B3 G236R/GpL16-k0 (antibody, human IgG1)
heavy: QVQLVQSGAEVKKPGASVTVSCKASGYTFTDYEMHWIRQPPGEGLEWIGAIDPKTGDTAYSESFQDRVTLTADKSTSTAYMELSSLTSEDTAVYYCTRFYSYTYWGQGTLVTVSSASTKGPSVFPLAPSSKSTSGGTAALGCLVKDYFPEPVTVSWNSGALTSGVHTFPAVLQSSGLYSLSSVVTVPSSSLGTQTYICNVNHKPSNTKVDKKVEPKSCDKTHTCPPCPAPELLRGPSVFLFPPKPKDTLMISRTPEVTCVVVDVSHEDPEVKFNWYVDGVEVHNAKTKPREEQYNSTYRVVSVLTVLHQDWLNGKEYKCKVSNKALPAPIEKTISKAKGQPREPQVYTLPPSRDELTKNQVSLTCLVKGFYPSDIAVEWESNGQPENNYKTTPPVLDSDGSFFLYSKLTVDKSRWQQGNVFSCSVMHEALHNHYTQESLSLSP
light: DIVMTQSPLSLPVTPGEPASISCQASESLVHSNRNTYLHWYLQKPGQSPQLLIYKVSNRFSGVPDRFSGSGSGTDFTLKISRVEAEDVGVYYCSQNTHVPPTFGQGTKVEIE
notes: anti-glypican-3 IgG1; B3 constant region (G1d with K439E); also called B3 variant; copies: 2 + 2
B1: in experiment [1], the relative binding activity was 1 % of GpH7-B3/GpL16-k0.

B2: GpH7-B3 variant D265F/GpL16-k0 (antibody, human IgG1)
heavy: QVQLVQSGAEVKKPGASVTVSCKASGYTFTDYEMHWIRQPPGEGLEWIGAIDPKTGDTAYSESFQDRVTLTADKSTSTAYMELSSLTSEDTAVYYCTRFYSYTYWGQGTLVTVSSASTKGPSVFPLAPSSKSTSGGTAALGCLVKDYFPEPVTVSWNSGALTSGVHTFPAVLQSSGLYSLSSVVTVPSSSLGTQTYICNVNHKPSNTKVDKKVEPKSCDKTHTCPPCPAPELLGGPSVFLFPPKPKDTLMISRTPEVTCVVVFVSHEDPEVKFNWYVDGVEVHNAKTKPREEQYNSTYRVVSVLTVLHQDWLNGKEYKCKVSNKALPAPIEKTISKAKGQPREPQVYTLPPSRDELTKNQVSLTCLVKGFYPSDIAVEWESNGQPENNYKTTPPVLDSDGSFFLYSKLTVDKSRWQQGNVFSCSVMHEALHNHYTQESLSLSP
light: B1 light
notes: copies: 2 + 2
With B2, in experiment [2], the relative binding activity was 1 % of GpH7-B3/GpL16-k0.

B3: GpH7-B3 variant P238W/GpL16-k0 (antibody, human IgG1)
heavy: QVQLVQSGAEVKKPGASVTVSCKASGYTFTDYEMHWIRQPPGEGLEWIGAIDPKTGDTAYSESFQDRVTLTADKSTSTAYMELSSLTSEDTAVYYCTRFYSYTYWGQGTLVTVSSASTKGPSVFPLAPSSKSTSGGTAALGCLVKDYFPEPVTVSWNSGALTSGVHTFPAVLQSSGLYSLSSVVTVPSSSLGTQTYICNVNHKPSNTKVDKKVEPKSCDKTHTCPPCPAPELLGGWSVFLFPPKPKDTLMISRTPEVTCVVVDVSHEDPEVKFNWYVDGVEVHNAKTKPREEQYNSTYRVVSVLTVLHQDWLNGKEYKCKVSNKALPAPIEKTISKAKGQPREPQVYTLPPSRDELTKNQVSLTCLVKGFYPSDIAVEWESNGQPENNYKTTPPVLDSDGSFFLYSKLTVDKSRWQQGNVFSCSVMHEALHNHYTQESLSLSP
light: B1 light
notes: copies: 2 + 2
Turning to B3, the relative binding activity in experiment [3] was 1 % of GpH7-B3/GpL16-k0.

B4: GpH7-B3 L235R/GpL16-k0 (antibody, human IgG1)
heavy: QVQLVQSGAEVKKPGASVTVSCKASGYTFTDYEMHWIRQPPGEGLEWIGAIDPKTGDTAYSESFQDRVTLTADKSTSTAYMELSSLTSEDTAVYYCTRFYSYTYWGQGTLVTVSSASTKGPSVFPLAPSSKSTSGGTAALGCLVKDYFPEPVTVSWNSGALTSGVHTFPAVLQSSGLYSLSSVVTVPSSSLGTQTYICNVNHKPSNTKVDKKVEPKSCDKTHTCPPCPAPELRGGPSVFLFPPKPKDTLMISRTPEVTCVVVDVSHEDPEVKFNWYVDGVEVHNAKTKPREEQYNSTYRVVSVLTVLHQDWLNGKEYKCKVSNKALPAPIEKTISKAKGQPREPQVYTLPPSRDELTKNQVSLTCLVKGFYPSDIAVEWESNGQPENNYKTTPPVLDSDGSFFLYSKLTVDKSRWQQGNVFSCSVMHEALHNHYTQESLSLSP
light: B1 light
notes: as for B1
With B4, in experiment [4], the relative binding activity was 2 % of GpH7-B3/GpL16-k0.

B5: GpH7-B3 variant P238K/GpL16-k0 (antibody, human IgG1)
heavy: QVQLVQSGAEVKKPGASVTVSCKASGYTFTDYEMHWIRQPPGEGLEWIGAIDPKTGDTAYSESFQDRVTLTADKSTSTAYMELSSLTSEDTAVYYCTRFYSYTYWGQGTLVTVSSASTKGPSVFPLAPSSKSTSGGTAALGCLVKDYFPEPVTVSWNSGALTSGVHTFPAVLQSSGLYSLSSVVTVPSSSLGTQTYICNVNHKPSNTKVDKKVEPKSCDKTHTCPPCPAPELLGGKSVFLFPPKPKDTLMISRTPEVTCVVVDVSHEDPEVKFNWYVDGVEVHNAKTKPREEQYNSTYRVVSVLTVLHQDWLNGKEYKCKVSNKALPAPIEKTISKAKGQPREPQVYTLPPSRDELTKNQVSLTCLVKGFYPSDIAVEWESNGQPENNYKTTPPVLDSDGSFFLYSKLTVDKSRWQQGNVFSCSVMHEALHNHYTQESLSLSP
light: B1 light
notes: copies: 2 + 2
On to B5, for which the relative binding activity was 1 % of GpH7-B3/GpL16-k0 in experiment [5] and 2 % of GpH7-B3/GpL16-k0 in experiment [6].

B6: IL6R-BP195/IL6R-L (antibody, human IgG1, name in EU numbering)
heavy: QVQLQESGPGLVKPSETLSLTCAVSGHSISHDHAWSWVRQPPGEGLEWIGFISYSGITNYNPSLQGRVTISRDNSKNTLYLQMNSLRAEDTAVYYCARSLARTTAMDYWGEGTLVTVSSASTKGPSVFPLAPSSKSTSGGTAALGCLVKDYFPEPVTVSWNSGALTSGVHTFPAVLQSSGLYSLSSVVTVPSSSLGTQTYICNVNHKPSNTKVDKKVEPKSCDKTHTCPPCPAPDYLGDDSVFLFPPKPKDTLMISRTPEVTCVVVDVSDEDGEVKFNWYVDGVEVHNAKTKPREEQDNSTYRVVSVLTVLHQDWLNGKEYKCKVSNAALPKPIEKTISKAKGQPREPQVYTLPPSRDELTKNQVSLTCLVKGFYPSDIAVEWESNGQPENNYKTTPPVLDSDGSFFLYSKLTVDKSRWQQGNVFSCSVMHEALHNHYTQESLSLSP
light: DIQMTQSPSSLSASVGDRVTITCRASQDISSYLNWYQQKPGKAPKLLIYYTSRLHSGVPSRFSGSGSGTDFTFTISSLQPEDIATYYCQQGNTLPYTFGQGTKVEIK
notes: Anti-human IL-6 receptor IgG1 Fc variant; also called E233D/L234Y/G237D/P238D/H268D/P271G/Y296D/K326A/A330K; copies: 2 + 2
Regarding B6, in experiment [7], the “relative binding activity” value is 661 % of IL6R-BF648/IL6R-L.
